Columns and labels:
[1] = molecular target: Env of pseudotyped HIV-1 Bal26 virus (clade B, tier 1) (HIV-1 (clade B, Bal26)); assay: cell-based or functional assay
[2] = molecular target: Env of pseudotyped HIV-1 Q23Env17 virus (clade A, tier 1) (HIV-1 (clade A, Q23Env17)); assay: cell-based or functional assay
[3] = molecular target: Env of pseudotyped HIV-1 SF162S virus (clade B, tier 1) (HIV-1 (clade B, SF162S)); assay: cell-based or functional assay
[4] = molecular target: recombinant HIV-1 Env (subtype B; MN) protein (HIV-1 (subtype B, MN), UniProt P05877 32-513); assay: binding ELISA, serial dilutions of day 14 mouse sera (FIG. 64A)

Row | Binder | plateau percent neutralization (TZM-Bl luciferase assay, sera at 1:50) [1] | plateau percent neutralization (TZM-Bl luciferase assay, sera at 1:50) [2] | plateau percent neutralization (TZM-Bl luciferase assay, sera at 1:50) [3] | binding result [4]
1 | HIV-1 Env-Fab (Fab generated from the VRC01 antibody, expressed from pHIV-1Env-Fab) (Fab, V domains shown) VH: QVQLVQSGGQMKKPGESMRISCRASGYEFIDCTLNWIRLAPGKRPEWMGWLKPRGGAVNYARPLQGRVTMTRDVYSDTAFLELRSLTVDDTAVYFCTRGKNCDYNWDFEHWGRGTPVIVSS VL: QIVLTQSPGTLSLSPGETAIISCRTSQYGSLAWYQQRPGQAPRLVIYSGSTRAAGIPDRFSGSRWGPDYNLTISNLESGDFGVYYCQQYEFFGQGTKVQVDI | ~62% | ~60% | ~70% | 
2 | CHIKV-IgG (full-length anti-CHIKV Env human IgG from a single plasmid) (antibody, V domains shown) VH: QVQLQQPGAALVKPGASAMMSCKASGYTFTSYWITWVKQRPGQGLEWIGDIYPGTGRTIYKEKFKTKATLTVDTSSSTAFMQLNSLTSEDSAVYYCARGYGSPYYALDYWGQGTSVTVSS VL: DIVLTQSPASLAVSQGQRATISCKASQSVDYDGDSYVNWYQQKPGQSPKLLIYDASNLESGIPARFSGSGSGTDFTLNIHPVEEEDVATYYCQESNEDPRTFGGGTKLEIKR |  |  |  | no binding
3 | CHIKV-Env-Fab (Fab, V domains shown) VH: QVQLVQSGSELKKPGASVKVSCKASGYTLTRYAMTWVRQAPGQGLEWMGWINTYTGNPTYVQGFTGRFVFSLDTSVSTAFLHITSLKAEDTAVYFCAREGGARGFDYWGQGTLVTVSS VL: QSVLTQPPSVSGAPGQRVTISCTGSSSNIGASHDVHWYQQLPGTAPTLLIYVNSNRPSGVPDRFSGSKSGTSASLAITGLQAEDEADYYCQSYDSNLSGSAVFGGGTKLTVLG |  |  |  | no binding

— patent US20220112273A1 (University of Pennsylvania, published 2022)
